The values below are quoted from earlier work in article PMC8295177 (Cancer discovery, 2021).

Read-outs that look alike come from different tables or passages of the source.

The test system of the series is NSCLC with EGFRex20ins mutations. Conditions: cited from earlier work.
The mark [1] stands for this setting: 39 response-evaluable patients with advanced NSCLC and EGFRex20ins mutations, phase 1.

B1: amivantamab: an intravenous bispecific antibody that targets EGFR and MET (antibody, chains of the INN, looked up, V domains shown)
VH: QVQLVESGGGVVQPGRSLRLSCAASGFTFSTYGMHWVRQAPGKGLEWVAVIWDDGSYKYYGDSVKGRFTISRDNSKNTLYLQMNSLRAEDTAVYYCARDGITMVRGVMKDYFDYWGQGTLVTVSS
VL: AIQLTQSPSSLSASVGDRVTITCRASQDISSALVWYQQKPGKAPKLLIYDASSLESGVPSRFSGSESGTDFTLTISSLQPEDFATYYCQQFNSYPLTFGGGTKVEIK
VH2: QVQLVQSGAEVKKPGASVKVSCETSGYTFTSYGISWVRQAPGHGLEWMGWISAYNGYTNYAQKLQGRVTMTTDTSTSTAYMELRSLRSDDTAVYYCARDLRGTNYFDYWGQGTLVTVSS
VL2: DIQMTQSPSSVSASVGDRVTITCRASQGISNWLAWFQHKPGKAPKLLIYAASSLLSGVPSRFSGSGSGTDFTLTISSLQPEDFATYYCQQANSFPITFGQGTRLEIK
In the case of B1, under setting [1], the “investigator-assessed response rate (ORR)” value is 36% and the “median PFS” value was 8.3 months. Further, the “median PFS” value (patients with NSCLC with EGFRex20ins and other EGFR mutations) is listed as 8.3.
